Laboratory results taken from the nanobody polyreactivity screen of Harvey et al. (2022).

Assay: yeast display, Sf9 membrane polyspecificity reagent, FACS + sequencing; frameworks hold sequencing errors
Summary of the method: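 Using colony PCR, genes from sorted yeast display clones were amplified, then sequenced on MiSeq at 2 × 250 and filtered by CDR length. The clones had been stained with 10% biotinylated, detergent-solubilized Sf9 membrane reagent for 1 hour at 4 °C and sorted by FACS into low and high (top ~1%) gates on anti-HA and streptavidin fluorescence. Polyreactivity labels come from the gate of origin.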

Sequence | polyreactivity (PSR sort gate)
QVQLVESGGGLVQAGGSLRLSCASSGRTFYPYAMGWYRQAPGKERDLDAAITWSGGSTYYADSVKGRFTISRDYAKITVYLQMNSLKPEDTAVYYCNATYEAYIYYEYDYWGQGTQVTVSS | low polyreactivity
QVQLVESGGGVVQAGGSLRISCAASGSTFVRYAMGWYRQAPGKERELVASISSSGSTYYADSVKGRFTISRDYAKNTVNVELNCLNPEDNAVYYCAKQYGGRYGYWGQGSQVTVSS | low polyreactivity
QVQLVESGGGLVQAGGSLRLSCAASASIYAHYEMGWYRQAPGKERELVAAITASGGTTYYADSVKGRFTISRDNAKNTVYLQMNSLKPEDTAVYYCNAGKRTFLYDRDDYWGQGTQVTVSS | high polyreactivity
QVQLVESGGGLVQAGGSLRLSCAASGSIFKHNDMGWYRQAPGKERELVAAISRSGGSTYYADSVKGRFTISRDNAKNTVYLQMNSLKPEDTAVYYCAKDGVGAPSTYNYWGQGTQVTVSS | high polyreactivity
QGQLVESGGGLVQAGGSLRLSCAASGLTFGSYTMGWYRQAPGKERELVAAITSDGSTNYADSVKGRFTISRDNAKNTVYLQMNSLKPEDTAVYYCAATRVSYRQFKAIGYHYWGQGTQVTVSS | high polyreactivity
QVQLVESGGGLVKAGASLRLSCAASGRTFRHNARGWYRQAPGKERELVAAITIGTNTYYADSVKGRFTISRDNAKNTVYLQMNSLKPEDTEVYYCAAVKDRYAYVPPRFDYWGQGSQVTVSS | low polyreactivity
QVQLVESGGGLVQAGGSLRLSCAASGFIFTDYAMGWYRQAPGKEREFVAAIDWSGGNTYYADSVKGRFTISRDNAKNTVYLLMNSLKPEDTAVYYCADSGSAREYDYWGQGTQVTVSS | low polyreactivity
QVQLVESGGGLVQAGGSLRLSCAASGSTFSKYAMGWYRQAPGKERELVATISSTGSTNYADSVKGRFTISRDNEKNTVYLQMNSLKPEDTAVYDCNAGRRGRPYYKYYYWGQGTQVTVSS | high polyreactivity
QVQLVESGGGLVQAGGSLRLSCAASGRTFRYYTMGWYRQAPGKEREFVAAISSTGGTYYADSVKGRFTISRDNAKNTVYLQMNSLKPEDTAVFYGAATFIQVVVNGQLYDYDYWGQGTQVTVSS | low polyreactivity
QVQLVESGGGLVQAGGSLRLSCAASGIISYRYGMGWYRQAPGKEGELVAAISWSGGSTYYADSVKGRFTISRDNAKNTVYLQMNSRKPEDTAVYYCAAYWRQAGVFKIYDYWGQGTQVTVSS | high polyreactivity
QVQLVESGGGLVQAGGSLRLSCAASGSTFYGYAMGWYRQAPGKERELVAAISSGGRTKYADSVKGRFTISRDTAKNTVYLQMNSLKPEDTAVYYCYVSYLVYRWKFGWSMDYWGQGTQVTLSS | low polyreactivity
QVQLVESGGGLVQAGGSLRLSCAASGRIFYGNAMGWYRQAPGKERELVATISSSGGRTTYADSVKGRFTISRDNAKNTVYLQMNSLKPEDTAVYYCNARYRTRSLKYYYWGQGTQVTVSS | high polyreactivity
QVQLVESGGGLVQAGGSLRLSCAASGSTFINYAMGWYRQAPGKERELVAAISKGGGSTYYADSVKGRFTISRDNAKNTVYLQMTSLKPEDTAVYYCAATGRAGAGKRKYEYWGQGTQVTVSS | high polyreactivity
QVHLVESGGGLVQAGGSLRLSCAASGSIFWYYGMGWYRQAPGKERELVASITSGGSTNYADSVKGRFSISRDNAKNTVYLQMNRLKPEDSAVYYCNTDDDSSSTGYYSWGQGTQVNVSS | low polyreactivity
QFQLVESGGGLVQAGGSLRLSCAASGRIFGVYARGWYRQAPGKERELVAAISSTGGSTYYADSVKGRFTISRDTAKNTVYLQMNSLKPEDTAVYYCEYDYWGQGTQVTVSS | low polyreactivity
QVQLVESGGGLVQAGGSLRLSCAASGSTFYQNAMGWYRQAPGKEMELVAAISSSGRTYYADSVKGRFTISRDNAKNTVFLQMNSLKPEDTAVYYCAFGAYGSLYSIRVAYGRMDYWGQGTQVTVSS | high polyreactivity
QVQLVESGGGLVQAGGSLRLSCAASGIIFSRYAMGWYRPAPGKVRELVASITGRVGSTYYADSVKGPFTISRDNAKNTVYLQMNRLNPEDTAVYYCAADYVYKFDYWGHGTQVTVSS | low polyreactivity
QVQLVESGGGLVQAGGSLRLSCAASGSIFSPYAMGWYRQAPGKERELVAAISYGVGNTYYADSVKGRFTISRDNAKNTVYLQMNSLIPEDTAVYYCAAEEYDYVFPHYFTKGYYWGQGTQVTVSS | high polyreactivity
QVNLVESGVGLVQAGVSLRLSCAASGRIFQYYAMGWYRQATGKERELVAAISRSGGSTYYADSVKGRFTISRDNANNTVYLQMNSLKPEDTAVYYCAKVYRGFSYGYCGQGTQVTVSS | high polyreactivity
QVQLVESGGGLVQAGGSLRLSCAASGFIFRGYAMGWYRQAPGKERELVAAINYSGGSTYYADSVKGRFTISRDNAKNTVYLQMNSLKPEDTAVYYCAAGKRGDDDYWGQGTQVTVSS | high polyreactivity
QVQLVESGGGLDQAGGSLRLSCAASGSIFYRNAIGWYRQAPGKDREFVAAITLRGGSTYYADSVKGRFTISRDNAKNTVYLQMNSLKPEDTAVYYCAADLLLYSSQDNDYWGQGTQVTVSS | low polyreactivity
QVQLVESGGGLVQAGGSLSLSCAASGSTFQLYAKGWYRQAPGKERELVAAISGIGDSTYYADSVKWRFTISRDNAKNTVYLLMNSLKPEDTAVYYCAREFSDGLSGKFDYWGHGTQVTVSS | low polyreactivity

Sequence | polyreactivity (PSR sort gate)
QVQLVESGGGLVQAGGSLRLSCAASGSTFGTYAMGWYRQEPGKERELVAAINRDGGRTYYADSVKGRFTISRDNAKNTVYLQMNSLKPEDTAVYYCAAEGLDEGDYWGQGTQVTVSS | low polyreactivity
QVQLVESGGGLVQAGGTLRLSCAASGFIINRYAMGWYRQPPGKERELVAAISWSGGRTYYADSVKGRFTISRDNAKNTVSLQMNSLKPEDTAVYYCAADSYTSLDGRDYWGQGTQVTVSS | high polyreactivity
QVQLVESVGGLVQAGGSLRLSCAASGRIFRFYAMGWYRQAPGKERELVAAISSSGVRTYYADSVKGRFTISRDNAKKTVYLQINSLTPEDTAVYYCAASRHFARHRGYYFRYDYWGQGTQVTVSS | high polyreactivity
QVQLVESGGGLVQAGGSLRLSCAASGFIFSQYAMGWYRQAPGKERELVAAISYRGGSTYYADSVKGRFTISRDNAKNTVYLQMNSLKPEDTAVYYCNAGRRSQTYLGTCDYWGQGTQVTVSS | high polyreactivity
QVQLVESGGGLVQAGGSLRLSCAASGLIFYPYAMGWYRQAPGKERELVAGISSSGDSTYYADSVKGRFTISRDNAKNTVYLQMNSLKPEDTAVYYCNADGWYFEYWGQGTQVTVSS | low polyreactivity
QVQLVESGGGLVQAGGSLRLSCAASGFTFEKYSMGWYRQAPGKERELVAAITQSAGSTYADSVKGRFTISRDNAKNTVYLQMISLKPEDTAVYYFAARYRYPYYARYGYWGQGTQVTVSS | high polyreactivity
QVQLVESGGGLVQAGGSLRLALLPPDLPSTLNDMGLYRQAPGKERELVAAITRGGSTNYADSVKGRFTISRDNAKNTVYLQMNSLKPEDTADYYCAAPYAGWRDGGDYWGQGTQVTVSS | low polyreactivity
QVQLVESGGGLVQAGGSLRLSCAASGRIIGLYTMGWYRQAPGKERELVAAINIRGTRTYYADSVKGRFTISRDNAKNTVYLQMTSLKPEDTAVYYCNAYPKSWELDYWGLGTQVTVSS | high polyreactivity
QVQLVESGGGLVQAGGSLRLSCAASGLIIYSNAMGWYRQAPRKERELVAAINYSGGRTYYADSVKGRFTISRDNAKNTVYLQMNSLKPEDTAVYYCAARLYGAQRHGGYWGQGTQVTVSS | high polyreactivity
QVQLVESGGGLVQAGGSLRLSCAASGSIFVAYAKGWYRPAPGKERELVAAISSSGGTTYYADSVKGRFTISRDNAKITVYLQMNSLKPEDSAVYYCAARDYKYYYWGQGTQVTVSS | high polyreactivity
QVQLVESGGGLVQAGGSLRLSCAASGSTFSGNAMGWYRQAPGKEREFVAAIFSDGSTYYADSVKGRFTISRDNAKNTVYLQMNSLKPEDTAVYYCAAAWYEPATQTGYFEFDYWGQGTQVTVSS | low polyreactivity
QVQLEESGGGLVQPGGSLRLSCAASGIIFAYNAMGWNRQAPGKERELVATITDSGGTTSYADSVKGRFTISRDNAKNTVYLQMNRLKQEDTAVYYCAVLPVYWYWRNYVYLSGYDYWGQGTQVNVSS | low polyreactivity
QVQLVESGGGLVQAGGSLRLSCAASGRTFRYNAMGWYRQAPGKERELVAGITWRGGRTYYADSVKGRFTISRDNAKNTVYLQMNSLKPEDTAVYYCNTAGYYWLHYTMDYWGQGTQVTVSS | high polyreactivity
QVQLVESGGGLVQAGGSLRLTCAASGFTFDQYAMGWYRQEPGKERELVAAISFDGSSTYYADSVKGRFTISRDNAKNTVYLQMNSLKPEDTAVYYCNAAVRGYSSLYRYGYWGQGTQVTVSS | high polyreactivity
QVQHVESGGGLVQAGGSLRLSCAASGRIFVPYAKGWYRQPPGKERELVADISLRGGTTYYADSVKGRFTISRDNAKNTVYLQMNSLKPEDTAVYYCAARGYVSVWRPYHWFVAGDYWGQGTQVTVSS | high polyreactivity
QVQLVESGGGLVQAGGSLRLSCAASGLIFGYYAMGWYRQAPGKEREFVAAISGTGGSTYYADSVKGRFTISRDNAKNTVYLQMNSLKPEDTAVYYCAARQGWWRFYAYDYWGQCTQVTVSS | high polyreactivity
QVQLVESGGGLVQAGGSLRLSCAASGSIFVHYDMGWYRPAPGKERELVADIDYSGGSTYYADSVKGRFTISRDNAKNTVYLQMNSLKPEDTAVYYCAAERRRWGLDYYYWGQGTQVTVSS | high polyreactivity
QVQLVESGGGLVQAGGSLRLSCAASGSTFGVNALGWYRQAPGKERELVAVITRSGGSTYYADSVKGRFTISRDNAKNTVYLQMNSLKPEDTAVYYCAKSGVVDWGQGTQVTVSS | low polyreactivity
QVQLVESGGGLVQAGGSLRLSCAASGITFERYTMGWYRQAPGKERELVAAIRGSGGTYYADSVKGRFTISRDNAKNTVYLQMNSLKPEDTAVYYCAARYSYRYGVVYGTLHGYWGQGTQVTVSS | high polyreactivity
QVQLVESGGALVQAGGSLRLSCAASGSTFVTYAMGWYRQAPGKEREFVAAISWRGGRTYYADSVKGRFSISRDNAKNTVYLQMNSLKPEDTAVYYCAVRTLQRGKHDLGVDYWGQGTQVTVSS | high polyreactivity
QVQLVESGGGLVQAGGSLRLSCAASGSIFFYYAMGWYRQAPGKERELVAAINWTGGRTYYADSVKGRFTISRDNAKNTVYLQMNSLKPEDTAVYYWAAEYYGQHDTYEYWGQGTQVTVSS | high polyreactivity
